B1: FCHO1 (parent)
chain: DKLALCHLELTRKLQDLIKDVLRY
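Also: lentivirally expressed fusions sorted by FACS into six bins by GFP to DsRed ratio, PSI derived from sequencing read proportions per bin multiplied by bin number.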

Variants of B1 are the subject of the data set. The data set can be described thus: protein stability index of a GFP-peptide fusion (GPS, HEK-293T) (PSI 1-6); higher = more stable. To be noted: c terminus: a fixed tail appended.
Consider DKLSLCHLELTRKLQDLIKDVLRY [A4S], for which the protein stability index was 1.81.

Regarding DKLGLCHLELTRKLQDLIKDVLRY [A4G], the protein stability index amounted to 1.6.

DKLLLCHLELTRKLQDLIKDVLRY [A4L]: the protein stability index is 1.98.

As to DKLCLCHLELTRKLQDLIKDVLRY [A4C], the protein stability index amounted to 2.52.

DKLALCHLELDRKLQDLIKDVLRY [T11D]: the protein stability index worked out at 3.07.

For the variant DKLALCHLELFRKLQDLIKDVLRY [T11F], the protein stability index worked out at 3.07.

As for DKLALCHLELERKLQDLIKDVLRY [T11E], the protein stability index is 1.27.

As to DKLALCHWELTRKLQDLIKDVLRY [L8W], the protein stability index amounted to 2.

Take DKLALCHLELTRKLQDLIKDPLRY [V21P]: the protein stability index amounted to 2.13.

Regarding DKLALCHLELTRKLQDLIKDYLRY [V21Y], the protein stability index came out at 2.3.

Turning to DKLALCHLELTRKLQDLIKDTLRY [V21T], the protein stability index is 2.53.

Consider DKLALCHLELTRKLQDLIKDHLRY [V21H], for which the protein stability index is 3.97.

As for DKLAPCHLELTRKLQDLIKDVLRY [L5P], the protein stability index amounted to 1.82.

For the variant DKLAICHLELTRKLQDLIKDVLRY [L5I], the protein stability index was 1.94.

As to NKLALCHLELTRKLQDLIKDVLRY [D1N], the protein stability index is 4.01.

RKLALCHLELTRKLQDLIKDVLRY [D1R]: the protein stability index worked out at 3.61.

Turning to FKLALCHLELTRKLQDLIKDVLRY [D1F], the protein stability index came to 3.44.

As to PKLALCHLELTRKLQDLIKDVLRY [D1P], the protein stability index was 4.01.

For SKLALCHLELTRKLQDLIKDVLRY [D1S], the protein stability index came to 2.45.

Consider DKLALCHLELTRKLQDIIKDVLRY [L17I], for which the protein stability index was found to be 2.89.

On to DKLALCHLELTRKLQDTIKDVLRY [L17T], for which the protein stability index was 2.71.

As for DKLALCHLELTRKLQDRIKDVLRY [L17R], the protein stability index was 2.12.

Regarding DKLALCHLELTRKLQDDIKDVLRY [L17D], the protein stability index is 2.06.

As for DKLALCHLELTRKLQDHIKDVLRY [L17H], the protein stability index came to 2.06.

For DKLALCHLELTRKLQDEIKDVLRY [L17E], the protein stability index was found to be 2.04.

For the variant DKLALCHLELTRKLQDLIKDVKRY [L22K], the protein stability index worked out at 1.65.

Regarding DKLALCHLELTRKLQDLIKDVTRY [L22T], the protein stability index is 1.05.

For the variant DKLALCHLELTRKLQDLIKDVDRY [L22D], the protein stability index was found to be 2.32.

For DKLALCHLELTRKLQDLIKDVNRY [L22N], the protein stability index came out at 1.47.

Consider DKLALCHLELTRKLQDLIKDVGRY [L22G], for which the protein stability index is 1.68.

Consider DKLALCHLELTRKLQYLIKDVLRY [D16Y], for which the protein stability index turned out to be 2.42.

As for DKLALCHLELTRKLQWLIKDVLRY [D16W], the protein stability index was 2.1.

DKLALCHLELTRKLQFLIKDVLRY [D16F]: the protein stability index stood at 2.36.

As to DKLALCHLELTRKLQMLIKDVLRY [D16M], the protein stability index turned out to be 2.46.

As for DKLALCHLELTRKLQPLIKDVLRY [D16P], the protein stability index came out at 2.15.

Turning to DKHALCHLELTRKLQDLIKDVLRY [L3H], the protein stability index turned out to be 2.12.

Regarding DKAALCHLELTRKLQDLIKDVLRY [L3A], the protein stability index was determined as 1.44.

Regarding DKDALCHLELTRKLQDLIKDVLRY [L3D], the protein stability index was 2.09.

For the variant DKNALCHLELTRKLQDLIKDVLRY [L3N], the protein stability index came to 2.25.

DCLALCHLELTRKLQDLIKDVLRY [K2C]: the protein stability index was determined as 3.86.

As to DELALCHLELTRKLQDLIKDVLRY [K2E], the protein stability index is 2.28.

Turning to DNLALCHLELTRKLQDLIKDVLRY [K2N], the protein stability index was determined as 1.26.

As to DHLALCHLELTRKLQDLIKDVLRY [K2H], the protein stability index worked out at 2.72.

DPLALCHLELTRKLQDLIKDVLRY [K2P]: the protein stability index was 1.39.

For the variant DTLALCHLELTRKLQDLIKDVLRY [K2T], the protein stability index came to 1.97.

Take DQLALCHLELTRKLQDLIKDVLRY [K2Q]: the protein stability index turned out to be 2.45.

For the variant DKLALCHLEVTRKLQDLIKDVLRY [L10V], the protein stability index worked out at 3.

As for DKLALCHLENTRKLQDLIKDVLRY [L10N], the protein stability index worked out at 1.21.

With DKLALCHLEGTRKLQDLIKDVLRY [L10G], the protein stability index stood at 1.86.

DKLALCHLECTRKLQDLIKDVLRY [L10C]: the protein stability index was 2.22.

Consider DKLALCHLEPTRKLQDLIKDVLRY [L10P], for which the protein stability index came to 1.69.

As to DKLALCHLESTRKLQDLIKDVLRY [L10S], the protein stability index worked out at 1.93.

In the case of DKLALCHLELTRKLQDLIKDVLRS [Y24S], the protein stability index stood at 1.04.

For DKLALCNLELTRKLQDLIKDVLRY [H7N], the protein stability index is 3.01.

For DKLALCTLELTRKLQDLIKDVLRY [H7T], the protein stability index is 3.2.

DKLALCSLELTRKLQDLIKDVLRY [H7S]: the protein stability index was found to be 1.81.

Regarding DKLALCDLELTRKLQDLIKDVLRY [H7D], the protein stability index came out at 3.07.

In the case of DKLALCRLELTRKLQDLIKDVLRY [H7R], the protein stability index came to 2.93.

On to DKLALCHLELTRKLADLIKDVLRY [Q15A], for which the protein stability index worked out at 2.11.

In the case of DKLALCHLELTRKLDDLIKDVLRY [Q15D], the protein stability index was 2.48.

As for DKLALCHLELTRKLTDLIKDVLRY [Q15T], the protein stability index came to 2.05.

As to DKLALCHLELTRKLSDLIKDVLRY [Q15S], the protein stability index came out at 4.09.

Turning to DKLALCHLELTRKLQDLNKDVLRY [I18N], the protein stability index is 2.4.

As for DKLALCHLELTRKLQDLQKDVLRY [I18Q], the protein stability index is 1.73.

With DKLALCHLELTRKLQDLHKDVLRY [I18H], the protein stability index turned out to be 2.12.

Take DKLALCHLELTRKLQDLMKDVLRY [I18M]: the protein stability index is 2.05.

Turning to DKLALCHLELTRKLQDLCKDVLRY [I18C], the protein stability index was 2.17.

Regarding DKLALCHLELTRKLQDLTKDVLRY [I18T], the protein stability index was 2.02.

For DKLALCHLELTRKLQDLIKYVLRY [D20Y], the protein stability index was 2.3.

For DKLALCHLELTRKLQDLIKWVLRY [D20W], the protein stability index came out at 2.4.

As for DKLALCHLELTRKLQDLIKIVLRY [D20I], the protein stability index stood at 2.16.

With DKLALCHLELTRKLQDLIKKVLRY [D20K], the protein stability index stood at 1.71.

For DKLALCHLELTRELQDLIKDVLRY [K13E], the protein stability index amounted to 2.19.

For the variant DKLALCHLELTRDLQDLIKDVLRY [K13D], the protein stability index is 2.86.

For DKLALCHLELTRSLQDLIKDVLRY [K13S], the protein stability index was found to be 1.98.

On to DKLALCHLELTRCLQDLIKDVLRY [K13C], for which the protein stability index was 1.75.

As to DKLALCHLELTRVLQDLIKDVLRY [K13V], the protein stability index worked out at 3.38.

Regarding DKLALCHLELTRNLQDLIKDVLRY [K13N], the protein stability index is 1.8.

DKLALCHLELTRMLQDLIKDVLRY [K13M]: the protein stability index is 2.21.

For DKLALCHLELTRTLQDLIKDVLRY [K13T], the protein stability index turned out to be 3.29.

As for DKLALCHLELTRKLQDLIKDVLCY [R23C], the protein stability index worked out at 3.57.

As for DKLALCHLELTRKLQDLIKDVLQY [R23Q], the protein stability index amounted to 3.15.

As to DKLALQHLELTRKLQDLIKDVLRY [C6Q], the protein stability index was 3.1.

DKLALEHLELTRKLQDLIKDVLRY [C6E]: the protein stability index worked out at 2.04.

With DKLALPHLELTRKLQDLIKDVLRY [C6P], the protein stability index came to 2.37.

In the case of DKLALAHLELTRKLQDLIKDVLRY [C6A], the protein stability index came to 2.64.

Take DKLALMHLELTRKLQDLIKDVLRY [C6M]: the protein stability index amounted to 3.01.

Regarding DKLALDHLELTRKLQDLIKDVLRY [C6D], the protein stability index worked out at 1.15.

With DKLALRHLELTRKLQDLIKDVLRY [C6R], the protein stability index is 2.52.

With DKLALVHLELTRKLQDLIKDVLRY [C6V], the protein stability index came out at 2.53.

With DKLALNHLELTRKLQDLIKDVLRY [C6N], the protein stability index is 3.3.

Turning to DKLALCHLELTRKLQDLIGDVLRY [K19G], the protein stability index was found to be 2.29.

Turning to DKLALCHLELTRKLQDLINDVLRY [K19N], the protein stability index was 2.69.

In the case of DKLALCHLELTRKLQDLIYDVLRY [K19Y], the protein stability index came out at 2.43.

Turning to DKLALCHLELTRKLQDLIADVLRY [K19A], the protein stability index was determined as 1.17.

The record behind these values is the supplement of paper PMC10567573.
